US20040018971A1 (published 2004)

How the values were obtained:
[1] = biological target: T1, HLA-A*0301 (purified HLA class I molecule) (human); assay: competition with 125I-labelled probe peptide for purified HLA-A*0301, gel filtration
T1 construct: also called HLA-A3

HLA-B*3501 [2] = biological target: HLA-B*3501 (human); assay: competition with 125I probe peptide, purified HLA
HLA-B*5401 [3] = biological target: HLA-B*5401 (human); assay: competition with 125I probe peptide, purified HLA
HLA-B*5301 [4] = biological target: HLA-B*5301 (human); assay: competition with 125I probe peptide, purified HLA
HLA-B*5101 [5] = biological target: HLA-B*5101 (human); assay: competition with 125I probe peptide, purified HLA
HLA-B*0702 [6] = biological target: HLA-B*0702 (human); assay: competition with 125I probe peptide, purified HLA
HLA-B*0702 [7] = biological target: HLA-B*0702 (human); assay: competition vs 125I-labelled probe peptide, purified HLA, gel filtration
HLA-B*3501 [8] = biological target: HLA-B*3501 (human); assay: as above
HLA-B*5401 [9] = biological target: HLA-B*5401 (human); assay: as above
HLA-B*5301 [10] = biological target: HLA-B*5301 (human); assay: as above
HLA-B*5101 [11] = biological target: HLA-B*5101 (human); assay: as above
[12] = biological target: HLA-A*0301 (purified HLA class I molecule) (human); assay: competition with 125I-labelled probe peptide on purified HLA-A*0301, gel filtration

B1: HER2/neu peptide, position 220, 9 amino acids (CAGGCARCK) (peptide)
peptide: CAGGCARCK
notes: also called Her2/neu.220 9-mer
relative binding ratio [1]: -0.0002 ratio (IC50 of standard peptide / IC50 of test peptide)

B2: HER2/neu peptide, position 26, 9 amino acids (CTGTDMKLR) (peptide)
peptide: CTGTDMKLR
notes: also called Her2/neu.26 9-mer
relative binding ratio [1]: 0.0002 ratio (IC50 of standard peptide / IC50 of test peptide)

B3: Her2/neu.600.F1I9 (peptide)
peptide: FPSGVKPDI
notes: analog peptide
IC50 (HLA-B*3501 [2]): 9 µM | IC50 (HLA-B*5401 [3]): 0.044 µM | IC50 (HLA-B*5301 [4]): 0.93 µM | IC50 (HLA-B*5101 [5]): 0.204 µM | IC50 (HLA-B*0702 [6]): 0.0063 µM

B4: HER2/neu peptide, position 334, 10 amino acids (CSKPCARVCY) (peptide)
peptide: CSKPCARVCY
notes: also called Her2/neu.334 10-mer
relative binding ratio [1]: 0.0003 ratio (IC50 of standard peptide / IC50 of test peptide)

B5: Her2/neu.921.F1I11 (peptide)
peptide: FPYDGIPAREI
notes: 11-mer B7 supermotif analog of the HER2/neu peptide starting at position 921
IC50 (HLA-B*0702 [7]): 0.141 µM | IC50 (HLA-B*3501 [8]): 2.88 µM | IC50 (HLA-B*5401 [9]): 0.015 µM | IC50 (HLA-B*5301 [10]): 0.465 µM | IC50 (HLA-B*5101 [11]): 0.05 µM

B6: HER2/neu peptide, position 890, 9 amino acids (ALESILRRR) (peptide)
peptide: ALESILRRR
notes: also called Her2/neu.890 9-mer
relative binding ratio [1]: 0.0013 ratio (IC50 of standard peptide / IC50 of test peptide)

B7: Her2/neu.282.I10 (peptide)
peptide: MPNPEGRYTI
notes: analog peptide
IC50 (HLA-B*3501 [2]): 0.111 µM | IC50 (HLA-B*5401 [3]): 0.046 µM | IC50 (HLA-B*5301 [4]): 0.0093 µM | IC50 (HLA-B*5101 [5]): 0.013 µM | IC50 (HLA-B*0702 [6]): 0.034 µM

B8: Her2/neu.282.F1 (peptide)
peptide: FPNPEGRYTI
notes: analog peptide
IC50 (HLA-B*3501 [2]): 0.024 µM | IC50 (HLA-B*5401 [3]): 0.0032 µM | IC50 (HLA-B*5301 [4]): 0.0066 µM | IC50 (HLA-B*5101 [5]): 0.0093 µM | IC50 (HLA-B*0702 [6]): 0.324 µM

B9: Her2/neu.605.F1 (peptide)
peptide: FPDLSYMPI
notes: analog peptide
IC50 (HLA-B*3501 [2]): 0.167 µM | IC50 (HLA-B*5401 [3]): 0.031 µM | IC50 (HLA-B*5301 [4]): 0.072 µM | IC50 (HLA-B*5101 [5]): 0.01 µM | IC50 (HLA-B*0702 [6]): 0.022 µM

B10: Her2/neu.336.F1 (peptide)
peptide: FPCARVCYGL
notes: analog peptide
IC50 (HLA-B*3501 [2]): 0.45 µM | IC50 (HLA-B*5401 [3]): 0.036 µM | IC50 (HLA-B*5301 [4]): 1.69 µM | IC50 (HLA-B*5101 [5]): 1 µM | IC50 (HLA-B*0702 [6]): 0.19 µM

B11: HER2/NEU A03 motif peptide, position 948, 10 amino acids (peptide)
peptide: TIDVYMIMVK
notes: Synthetic peptide
relative binding ratio (IC50 of standard peptide / IC50 of test peptide) [12]: 0.013 ratio

B12: HER2/NEU A03 motif peptide, position 713, 9 amino acids (peptide)
peptide: RILKETELR
notes: Synthetic peptide
relative binding ratio (IC50 of standard peptide / IC50 of test peptide) [12]: 0.0007 ratio

B13: HER2/neu peptide, position 805, 10 amino acids (CLLDHVRENR) (peptide)
peptide: CLLDHVRENR
notes: also called Her2/neu.805 10-mer
relative binding ratio [1]: 0.0003 ratio (IC50 of standard peptide / IC50 of test peptide)

B14: HER2/neu peptide, position 295, 9 amino acids (CVTACPYNY) (peptide)
peptide: CVTACPYNY
notes: also called Her2/neu.295 9-mer
relative binding ratio [1]: 0.0002 ratio (IC50 of standard peptide / IC50 of test peptide)

B15: HER2/neu peptide, position 997, 9 amino acids (ASPLDSTFY) (peptide)
peptide: ASPLDSTFY
relative binding ratio [1]: 0.0002 ratio (IC50 of standard peptide / IC50 of test peptide)

B16: HER2/NEU A03 motif peptide, position 166, 10 amino acids (peptide)
peptide: TILWKDIFHK
notes: Synthetic peptide; also called Her2/neu.166
relative binding ratio (IC50 of standard peptide / IC50 of test peptide) [12]: 0.043 ratio

B17: HER2/NEU A03 motif peptide, position 281, 9 amino acids (peptide)
peptide: SMPNPEGRY
notes: Synthetic peptide
relative binding ratio (IC50 of standard peptide / IC50 of test peptide) [12]: 0.0002 ratio

B18: HER2/NEU A03 motif peptide, position 182, 9 amino acids (peptide)
peptide: TLIDTNRSR
notes: Synthetic peptide
relative binding ratio (IC50 of standard peptide / IC50 of test peptide) [12]: 0.0004 ratio

B19: HER2/NEU A03 motif peptide, position 978, 9 amino acids (peptide)
peptide: RMARDPQRF
notes: Synthetic peptide
relative binding ratio (IC50 of standard peptide / IC50 of test peptide) [12]: 0.0001 ratio

B20: HER2/neu peptide, position 240, 9 amino acids (CAAGCTGPK) (peptide)
peptide: CAAGCTGPK
notes: also called Her2/neu.240 9-mer
relative binding ratio [1]: 0.0021 ratio (IC50 of standard peptide / IC50 of test peptide)

B21: HER2/NEU A03 motif peptide, position 208, 10 amino acids (peptide)
peptide: SSEDCQSLTR
notes: Synthetic peptide
relative binding ratio (IC50 of standard peptide / IC50 of test peptide) [12]: -0.0002 ratio

B22: Her2/neu.488.F1I10 (peptide)
peptide: FPHQALLHTI
notes: analog peptide
IC50 (HLA-B*3501 [2]): 0.655 µM | IC50 (HLA-B*5401 [3]): 0.004 µM | IC50 (HLA-B*5301 [4]): 0.042 µM | IC50 (HLA-B*5101 [5]): 0.019 µM | IC50 (HLA-B*0702 [6]): 0.086 µM

B23: HER2/neu peptide, position 195, 9 amino acids (CSPMCKGSR) (peptide)
peptide: CSPMCKGSR
notes: also called Her2/neu.195 9-mer
relative binding ratio [1]: -0.0008 ratio (IC50 of standard peptide / IC50 of test peptide)

B24: HER2/neu peptide, position 1212, 10 amino acids (AFSPAFDNLY) (peptide)
peptide: AFSPAFDNLY
notes: also called Her2/neu.1212 10-mer
relative binding ratio [1]: 0.0003 ratio (IC50 of standard peptide / IC50 of test peptide)

B25: Her2/neu.121.F1I9 (peptide)
peptide: FPLNNTTPI
notes: analog peptide
IC50 (HLA-B*3501 [2]): 0.2 µM | IC50 (HLA-B*5401 [3]): 0.0016 µM | IC50 (HLA-B*5301 [4]): 0.052 µM | IC50 (HLA-B*5101 [5]): 0.013 µM | IC50 (HLA-B*0702 [6]): 0.0016 µM

B26: Her2/neu.121.F1 (peptide)
peptide: FPLNNTTPV
notes: analog peptide
IC50 (HLA-B*3501 [2]): 0.04 µM | IC50 (HLA-B*5401 [3]): 0.0011 µM | IC50 (HLA-B*5301 [4]): 1.07 µM | IC50 (HLA-B*5101 [5]): 0.0071 µM | IC50 (HLA-B*0702 [6]): 0.0002 µM

B27: HER2/neu peptide, position 596, 10 amino acids (CVARCPSGVK) (peptide)
peptide: CVARCPSGVK
notes: also called Her2/neu.596 10-mer
relative binding ratio [1]: 0.022 ratio (IC50 of standard peptide / IC50 of test peptide)

B28: HER2/neu peptide, position 293, 9 amino acids (ASCVTACPY) (peptide)
peptide: ASCVTACPY
relative binding ratio [1]: 0.0008 ratio (IC50 of standard peptide / IC50 of test peptide)

B29: HER2/NEU A03 motif peptide, position 713, 10 amino acids (peptide)
peptide: RILKETELRK
notes: Synthetic peptide
relative binding ratio (IC50 of standard peptide / IC50 of test peptide) [12]: 0.057 ratio

B30: HER2/NEU A03 motif peptide, position 423, 10 amino acids (peptide)
peptide: SVFQNLQVIR
notes: Synthetic peptide
relative binding ratio (IC50 of standard peptide / IC50 of test peptide) [12]: 0.017 ratio

B31: HER2/neu peptide, position 705, 9 amino acids (AMPNQAQMR) (peptide)
peptide: AMPNQAQMR
notes: also called Her2/neu.705 9-mer
relative binding ratio [1]: 0.0004 ratio (IC50 of standard peptide / IC50 of test peptide)

B32: Her2/neu.1155.F1 (peptide)
peptide: FPLPAARPA
notes: 9-mer analog of the HER2/neu peptide starting at position 1155
IC50 (HLA-B*0702 [7]): 0.034 µM | IC50 (HLA-B*3501 [8]): 0.277 µM | IC50 (HLA-B*5401 [9]): 0.0015 µM | IC50 (HLA-B*5101 [11]): 1.9 µM

B33: Her2/neu.998.F1I11 (peptide)
peptide: FPLDSTFYRSI
notes: 11-mer analog of the HER2/neu peptide starting at position 998
IC50 (HLA-B*0702 [7]): 0.229 µM | IC50 (HLA-B*3501 [8]): 2.67 µM | IC50 (HLA-B*5401 [9]): 0.0024 µM | IC50 (HLA-B*5301 [10]): 0.62 µM | IC50 (HLA-B*5101 [11]): 0.046 µM

B34: Her2/neu.995.F1 (peptide)
peptide: FPASPLDSTF
notes: 10-mer analog of the HER2/neu peptide starting at position 995
IC50 (HLA-B*0702 [7]): 0.0037 µM | IC50 (HLA-B*3501 [8]): 0.01 µM | IC50 (HLA-B*5401 [9]): 0.2 µM | IC50 (HLA-B*5301 [10]): 0.01 µM | IC50 (HLA-B*5101 [11]): 0.579 µM

B35: HER2/NEU A03 motif peptide, position 103, 10 amino acids (peptide)
peptide: RGTQLFEDNY
notes: Synthetic peptide
relative binding ratio (IC50 of standard peptide / IC50 of test peptide) [12]: 0.0003 ratio

B36: Her2/neu.1157.F1 (peptide)
peptide: FPAARPAGATL
notes: 11-mer analog of the HER2/neu peptide starting at position 1157
IC50 (HLA-B*0702 [7]): 0.0039 µM | IC50 (HLA-B*3501 [8]): 0.36 µM | IC50 (HLA-B*5301 [10]): 2.91 µM | IC50 (HLA-B*5101 [11]): 0.239 µM

B37: HER2/neu peptide, position 180, 9 amino acids (ALTLIDTNR) (peptide)
peptide: ALTLIDTNR
notes: also called Her2/neu.180 9-mer
relative binding ratio [1]: 0.0004 ratio (IC50 of standard peptide / IC50 of test peptide)

B38: HER2/NEU A03 motif peptide, position 840, 10 amino acids (peptide)
peptide: RLVHRDLAAR
notes: Synthetic peptide
relative binding ratio (IC50 of standard peptide / IC50 of test peptide) [12]: 0.18 ratio

B39: HER2/neu peptide, position 528, 9 amino acids (CVNCSQFLR) (peptide)
peptide: CVNCSQFLR
notes: also called Her2/neu.528 9-mer
relative binding ratio [1]: 0.0015 ratio (IC50 of standard peptide / IC50 of test peptide)

B40: HER2/NEU A03 motif peptide, position 868, 10 amino acids (peptide)
peptide: RLLDIDETEY
notes: Synthetic peptide
relative binding ratio (IC50 of standard peptide / IC50 of test peptide) [12]: 0.0017 ratio

B41: HER2/NEU A03 motif peptide, position 402, 10 amino acids (peptide)
peptide: TLEEITGYLY
notes: Synthetic peptide; also called Her2/neu.402
relative binding ratio (IC50 of standard peptide / IC50 of test peptide) [12]: 0.0001 ratio

B42: HER2/NEU A03 motif peptide, position 545, 10 amino acids (peptide)
peptide: RVLQGLPREY
notes: Synthetic peptide
relative binding ratio (IC50 of standard peptide / IC50 of test peptide) [12]: 0.035 ratio

B43: Her2/neu.966.F1I11 (peptide)
peptide: FPRFRELVSEI
notes: 11-mer analog of the HER2/neu peptide starting at position 966
IC50 (HLA-B*0702 [7]): 0.229 µM | IC50 (HLA-B*3501 [8]): 0.24 µM | IC50 (HLA-B*5401 [9]): 0.028 µM | IC50 (HLA-B*5101 [11]): 0.167 µM
